Test results reported in patent publication US20200165335A1 (Seagen, published 2020).
Several values for one entry are separate records, joined by “and”; a condition that tells them apart may be missing. Equal values may be shown once.

T1: human LIV-1 (human, UniProt Q13433 29-755)
T1 construct: also called hLIV-1; Q13433
T1 sequence: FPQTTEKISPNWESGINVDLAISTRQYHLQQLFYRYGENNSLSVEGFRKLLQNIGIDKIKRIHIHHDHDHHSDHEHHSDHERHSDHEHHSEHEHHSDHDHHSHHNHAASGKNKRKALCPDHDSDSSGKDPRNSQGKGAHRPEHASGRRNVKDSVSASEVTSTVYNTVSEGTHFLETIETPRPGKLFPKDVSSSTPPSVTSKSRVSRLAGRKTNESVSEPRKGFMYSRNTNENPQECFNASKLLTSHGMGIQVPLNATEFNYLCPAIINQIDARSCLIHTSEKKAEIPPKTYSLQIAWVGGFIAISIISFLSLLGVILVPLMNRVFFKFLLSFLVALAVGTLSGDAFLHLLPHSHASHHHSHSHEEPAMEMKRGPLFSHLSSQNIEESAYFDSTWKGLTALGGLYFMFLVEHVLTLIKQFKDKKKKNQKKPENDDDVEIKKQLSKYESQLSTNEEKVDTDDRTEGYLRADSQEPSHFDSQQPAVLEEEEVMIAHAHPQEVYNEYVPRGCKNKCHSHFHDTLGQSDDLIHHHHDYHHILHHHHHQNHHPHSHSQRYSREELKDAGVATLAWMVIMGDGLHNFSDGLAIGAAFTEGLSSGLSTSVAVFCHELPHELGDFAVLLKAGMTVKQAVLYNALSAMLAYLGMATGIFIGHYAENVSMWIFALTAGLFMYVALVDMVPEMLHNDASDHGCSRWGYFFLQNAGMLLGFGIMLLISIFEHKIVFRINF

T2: human LIV-1 (UniProt Q13433 29-755)
T2 chain: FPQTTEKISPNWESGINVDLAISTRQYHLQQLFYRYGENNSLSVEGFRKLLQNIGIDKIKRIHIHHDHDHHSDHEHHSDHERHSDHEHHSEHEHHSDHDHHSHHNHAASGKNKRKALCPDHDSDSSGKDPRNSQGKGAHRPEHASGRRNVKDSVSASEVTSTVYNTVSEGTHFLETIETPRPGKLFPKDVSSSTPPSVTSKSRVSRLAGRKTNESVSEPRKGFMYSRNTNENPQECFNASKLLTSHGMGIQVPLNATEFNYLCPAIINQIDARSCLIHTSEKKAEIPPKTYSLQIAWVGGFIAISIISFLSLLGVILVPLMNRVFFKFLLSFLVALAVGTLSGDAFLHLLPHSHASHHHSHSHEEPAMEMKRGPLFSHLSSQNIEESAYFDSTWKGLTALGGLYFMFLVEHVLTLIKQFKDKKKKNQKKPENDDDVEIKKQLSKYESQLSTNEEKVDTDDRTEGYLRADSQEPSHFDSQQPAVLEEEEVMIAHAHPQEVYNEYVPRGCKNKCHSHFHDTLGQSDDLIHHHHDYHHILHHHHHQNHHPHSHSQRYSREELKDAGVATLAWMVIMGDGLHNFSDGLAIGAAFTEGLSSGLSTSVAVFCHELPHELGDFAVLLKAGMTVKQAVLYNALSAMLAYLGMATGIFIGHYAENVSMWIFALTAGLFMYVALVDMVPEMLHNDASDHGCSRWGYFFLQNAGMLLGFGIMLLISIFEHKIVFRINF

T3: cynomolgus monkey LIV-1 (cynomolgus monkey, UniProt Q5R9M9 28-743 (Pongo abelii entry))
T3 construct: Recombinant on transfected CHO cells; also called cyno LIV-1; cyLIV-1
T3 chain: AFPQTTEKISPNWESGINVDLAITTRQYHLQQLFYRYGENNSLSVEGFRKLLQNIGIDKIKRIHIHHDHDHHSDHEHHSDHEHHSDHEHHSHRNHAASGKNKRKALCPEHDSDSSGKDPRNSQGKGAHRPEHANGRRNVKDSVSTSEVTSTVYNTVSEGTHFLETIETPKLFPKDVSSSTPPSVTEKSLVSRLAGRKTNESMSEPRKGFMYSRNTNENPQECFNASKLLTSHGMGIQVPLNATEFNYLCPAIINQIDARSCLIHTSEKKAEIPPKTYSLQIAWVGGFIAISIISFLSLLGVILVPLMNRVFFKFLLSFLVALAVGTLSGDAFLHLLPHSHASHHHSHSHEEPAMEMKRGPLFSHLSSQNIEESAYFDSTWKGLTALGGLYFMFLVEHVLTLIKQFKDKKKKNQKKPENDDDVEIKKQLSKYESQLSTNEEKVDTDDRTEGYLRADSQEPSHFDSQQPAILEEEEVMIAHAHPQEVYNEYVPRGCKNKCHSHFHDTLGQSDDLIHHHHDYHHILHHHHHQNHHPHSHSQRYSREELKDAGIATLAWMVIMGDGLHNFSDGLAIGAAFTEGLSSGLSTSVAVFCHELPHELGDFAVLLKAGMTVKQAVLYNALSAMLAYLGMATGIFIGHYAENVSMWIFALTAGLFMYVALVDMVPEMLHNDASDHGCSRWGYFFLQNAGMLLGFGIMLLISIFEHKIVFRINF

T4: cynomolgus monkey LIV-1
T4 chain: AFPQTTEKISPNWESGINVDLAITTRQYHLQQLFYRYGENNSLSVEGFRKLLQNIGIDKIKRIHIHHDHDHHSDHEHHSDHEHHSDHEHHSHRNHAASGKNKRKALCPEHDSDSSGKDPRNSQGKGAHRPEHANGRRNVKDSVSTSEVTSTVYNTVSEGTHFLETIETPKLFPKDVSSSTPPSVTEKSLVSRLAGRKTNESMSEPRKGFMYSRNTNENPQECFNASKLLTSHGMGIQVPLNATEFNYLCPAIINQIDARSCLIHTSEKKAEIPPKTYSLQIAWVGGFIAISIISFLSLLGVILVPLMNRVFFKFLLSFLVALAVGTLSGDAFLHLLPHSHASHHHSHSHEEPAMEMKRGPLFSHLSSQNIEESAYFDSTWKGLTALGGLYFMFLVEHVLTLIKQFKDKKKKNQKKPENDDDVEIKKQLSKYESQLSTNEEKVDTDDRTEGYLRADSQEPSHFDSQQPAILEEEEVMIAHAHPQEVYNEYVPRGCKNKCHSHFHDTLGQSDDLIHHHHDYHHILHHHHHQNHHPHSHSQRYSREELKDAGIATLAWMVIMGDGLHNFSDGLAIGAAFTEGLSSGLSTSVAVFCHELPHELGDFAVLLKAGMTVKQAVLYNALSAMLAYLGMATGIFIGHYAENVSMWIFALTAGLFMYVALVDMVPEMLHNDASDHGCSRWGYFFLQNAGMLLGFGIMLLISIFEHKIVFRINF


Legend:
human LIV-1 [1] = molecular target: T1, human LIV-1; experiment: average of several saturation binding curves, flow cytometry, MCF7 cells
human LIV-1 [2] = molecular target: T1, human LIV-1; experiment: comparison of the EC50s of Table 3, CHO cells expressing human LIV-1
Protocol: (§1) 1×10⁵ CHO cells expressing recombinant human LIV-1 in PBS/BSA were aliquoted into each well of a 96-well v-bottom plates on ice. […] Cells were pelleted and washed 3 times with PBS/BSA. The cells were pelleted and resuspended in 125 μL of PBS/BSA. Fluorescence was analyzed by flow cytometry, using percent of saturated fluorescent signal to determine percent labeled murine LIV-1 mAb bound and to subsequently extrapolate the EC50 by fitting the data to a sigmoidal dose-response curve with variable slope.

human LIV-1 [3] = molecular target: T2, human LIV-1; experiment: competition binding on CHO hLIV1 cells
cynomolgus monkey LIV-1 [4] = molecular target: T3, cynomolgus monkey LIV-1; experiment: EC50 determination, CHO cells expressing recombinant cyno LIV-1
Protocol: as §1, with “recombinant cyno” for “recombinant human”, “in PBS” for “in PBS/BSA”, “aliquoted in” for “aliquoted into”, “with PBS.” for “with PBS/BSA.”

human LIV-1 [5] = molecular target: T2, human LIV-1; experiment: saturation binding on CHO cells; apparent Kd
cynomolgus monkey LIV-1 [6] = molecular target: T4, cynomolgus monkey LIV-1; experiment: saturation binding on CHO cells; apparent Kd
human LIV-1 [7] = molecular target: T1, human LIV-1; experiment: competition flow cytometry, CHO cells expressing human LIV-1, vs 5 nM AF647-labelled BR2-14a
human LIV-1 [8] = molecular target: T2, human LIV-1; experiment: saturation binding, flow cytometry on MCF7 cells; AF-labeled
human LIV-1 [9] = molecular target: T1, human LIV-1; experiment: saturation binding, CHO cells expressing human or cyno LIV-1 (FIG. 22)
human LIV-1 [10] = molecular target: T1, human LIV-1; experiment: competition flow cytometry, CHO cells expressing recombinant LIV-1, vs 5 nM AF647-labelled BR2-22a
Protocol: 1×10⁵ CHO cells expressing recombinant LIV-1 in PBS were aliquoted into each well of a 96-well v-bottom plates on ice. […] Cells were pelleted and washed 3 times with PBS. The cells were then pelleted and resuspended in 125 μL of PBS/BSA. Fluorescence was analyzed by flow cytometery, using percent of saturated fluorescent signal to determine percent labeled humanized BR2-22a antibody bound and to subsequently extrapolate the EC50 by fitting the data to a sigmoidal dose-response curve with variable slope.
All permutations of these five heavy chains and six light chains were then tested in a competition assay compared with BR2-22a (see FIG. 17).

cynomolgus monkey LIV-1 [11] = molecular target: T3, cynomolgus monkey LIV-1; experiment: saturation binding, CHO cells expressing cyno LIV-1 (FIG. 22)
human LIV-1 [12] = molecular target: T1, human LIV-1; experiment: saturation binding, CHO cells expressing human LIV-1 (FIG. 22)

Kd (human LIV-1 [1]) [nM]	fold better binding than the next humanized antibody HBLF (human LIV-1 [2]) [fold]	EC50 (human LIV-1 [3]) [µg/mL]	binding result (cynomolgus monkey LIV-1 [4])	Kd (human LIV-1 [5]) [nM]	Kd (cynomolgus monkey LIV-1 [6]) [nM]	EC50 (human LIV-1 [7]) [µg/mL]	Kd (human LIV-1 [8])	fold affinity for human LIV-1 relative to cynomolgus LIV-1 (human LIV-1 [9]) [fold]	EC50 (human LIV-1 [10]) [µg/mL]	binding result (cynomolgus monkey LIV-1 [11])	fold higher affinity (inverse of dissociation constant) than hLIV14 (human LIV-1 [12]) [fold]	Binder
1.5	≥ 2	0.642	binds	4.3	2.1	0.3	0.4 µg/mL and 2.9 nM	2				humanized BR2-14a antibody HBLB (hLIV14) (antibody, human IgG1, V domains shown, also called hLIV-14 HBLB WT; LIV-1 mAb HBLB) VH: QVQLVQSGAEVKKPGASVKVSCKASGYTIEDYYMHWVRQAPGQGLEWMGWIDPENGDTEYAPTFQGRVTMTRDTSINTAYMELSRLRSDDTAVYYCARHDAHYGTWFAYWGQGTLVTVSS VL: DVVMTQSPLSLPVTLGQPASISCRSSQSIIRNDGNTYLEWYQQRPGQSPRRLIYRVSNRFSGVPDRFSGSGSGTDFTLKISRVEAEDVGVYYCFQGSHVPYTFGGGTKVEIKR
				1.2	1.3				0.5	binds	~4	humanized BR2-22a antibody HGLG (hLIV22) (antibody, V domains shown, Only variable regions tied to the tested antibody; also called humanized LIV22 antibody; hLIV-22 HG + hLIV-22 LG) VH: QVQLVQSGAEVKKPGASVKVSCKASGLTIEDYYMHWVRQAPGQGLEWMGWIDPENGDTEYGPKFQGRVTMTRDTSINTAYMELSRLRSDDTAVYYCAVHNAHYGTWFAYWGQGTLVTVSS VL: DVVMTQSPLSLPVTLGQPASISCRSSQSLLHSSGNTYLEWYQQRPGQSPRPLIYKISTRFSGVPDRFSGSGSGTDFTLKISRVEAEDVGVYYCFQGSHVPYTFGGGTKVEIKR
